Experimental data as given in US11278600B2, “Human alpha-galactosidase variants” (Codexis, Inc., priority 2014, dated 2022).
Positions count from the first letter of the chain named.

B1: 178 (protein)
chain: LDNGLARTPTMGWLHWERFMCNLDCQEEPDSCISEKLFMEMAELMVSEGWKDAGYEYLCIDDCWMAPQRDSEGRLQADPQRFPHGIRQLANYVHEKGLKLGIYADVGNKTCAGFPGSFGYYDIDAQTFADWGVDLLKFDGCYCDSLENLADGYKHMSLALNRTGRSIVYSCEWPLYMWPFQKPNYTEIRQYCNHWRNFADIDDSWKSIKSILDWTSFNQERIVDVAGPGGWNDPDMLVIGNFGLSWNQQVTQMALWAIMAAPLFMSNDLRHISPQAKALLQDKDVIAINQDPLGKQGYQLRQGDNFEVWERPLSGLAWAVAMINRQEIGGPRSYTIAVASLGKGVACNPACFITQLLPVKRKLGFYEWTSRLRSHINPTGTVLLQLENTMQMSKDLLL
modifications: Synthetic Polypeptide sequence of Variant No. 178 of mature Human GLA
B2: 41 (protein)
chain: B1 chain with E95S, L396T
modifications: Synthetic Polypeptide sequence of Variant No. 41 of mature Human GLA
B3: 186 (protein)
chain: B1 chain with E95S, V345N
modifications: Synthetic Polypeptide sequence of Variant No. 186 of mature Human GLA
B4: 190 (protein)
chain: B1 chain with E95S, W178H
modifications: Synthetic Polypeptide sequence of Variant No. 190 of mature Human GLA
B5: 189 (protein)
chain: B1 chain with V93I, E95S
modifications: Synthetic Polypeptide sequence of Variant No. 189 of mature Human GLA
B6: 183 (protein)
chain: B1 chain with E95S, V133I
modifications: Synthetic Polypeptide sequence of Variant No. 183 of mature Human GLA
B7: 182 (protein)
chain: B1 chain with E95S, T389S
modifications: Synthetic Polypeptide sequence of Variant No. 182 of mature Human GLA
B8: 188 (protein)
chain: B1 chain with E95S, V359E
modifications: Synthetic Polypeptide sequence of Variant No. 188 of mature Human GLA
B9: 181 (protein)
chain: B1 chain with E95S, T369S
modifications: Synthetic Polypeptide sequence of Variant No. 181 of mature Human GLA
B10: 185 (protein)
chain: B1 chain with E95S, V168L
modifications: Synthetic Polypeptide sequence of Variant No. 185 of mature Human GLA
B11: 187 (protein)
chain: B1 chain with E95S, V345Y
modifications: Synthetic Polypeptide sequence of Variant No. 187 of mature Human GLA
B12: 184 (protein)
chain: B1 chain with E95S, V168A
modifications: Synthetic Polypeptide sequence of Variant No. 184 of mature Human GLA
B13: 179 (protein)
chain: B1 chain with E95Q
modifications: Synthetic Polypeptide sequence of Variant No. 179 of mature Human GLA
B14: 180 (protein)
chain: B1 chain with E95S, T369D
modifications: Synthetic Polypeptide sequence of Variant No. 180 of mature Human GLA
B15: 191 (protein)
chain: B1 chain with E95S, W178S
modifications: Synthetic Polypeptide sequence of Variant No. 191 of mature Human GLA
B16: 40 (protein)
chain: B1 chain with E95S, L396R
modifications: Synthetic Polypeptide sequence of Variant No. 40 of mature Human GLA

Tests used:
Type in all cases: biochemical
[1] = HTP-analysis of yeast culture supernatants, no challenge (MUGal hydrolysis); conditions: activity of the variant/activity of WT GLA (SEQ ID NO: 5), yeast supernatant
Procedure, shortened: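 GLA variants expressed in yeast INVSc1, secreted into SD-Ura broth over 66-84 h at 30° C; clarified supernatants tested without challenge. Supernatant mixed with McIlvaine buffer pH 4.8 and 2 mM MUGal (citrate/KCl, pH 4.6), 37° C for 30-180 min, carbonate-quenched, fluorescence Ex 355/Em 448 nm.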

[2] = HTP-analysis of supernatants pretreated with acid (MUGal hydrolysis); conditions: challenge at pH 4.2; activity of the variant/activity of WT GLA (SEQ ID NO: 5); yeast supernatant
Procedure, shortened: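 GLA variants were secreted from INVSc1 yeast grown 66-84 h at 30° C. in SD-Ura with 2% glucose; supernatants were mixed with McIlvaine buffer pH 3.3-4.3 and held at 37° C. for 1-3 h. Residual activity on MUGal at pH 4.8 was then measured by fluorescence.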

[3] = HTP-analysis of supernatants pretreated with base (MUGal hydrolysis); conditions: challenge at pH 7.1; activity of the variant/activity of WT GLA (SEQ ID NO: 5); yeast supernatant
Procedure, shortened: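 Supernatants from INVSc1 yeast expressing GLA variants (SD-Ura, 66-84 h, 30° C) were mixed with McIlvaine buffer pH 7.0-8.2 or 200 mM sodium bicarbonate pH 9.1-9.7 and held 1-18 h at 37° C. Residual activity was then measured on MUGal at pH 4.8/4.3, 37° C, 30-180 min, by fluorescence (Ex 355/Em 448 nm).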

Molecule | Relative Activity of GLA Variants After No Challenge (NC) [1] | Relative Activity of GLA Variants After Challenge at pH 4.2 [2] | Relative Activity of GLA Variants After Challenge at pH 7.1 [3]
B1 | ++ (++ = >1.5 to 2.5 relative activity over WT GLA (SEQ ID NO: 5)) | +++ (+++ = >2.5 relative activity over WT GLA (SEQ ID NO: 5)) | ++ (++ = >1.5 to 2.5 relative activity over WT GLA (SEQ ID NO: 5))
B2 | + (+ = 0.5 to 1.5 relative activity over WT GLA (SEQ ID NO: 5)) | + (+ = 0.5 to 1.5 relative activity over WT GLA (SEQ ID NO: 5)) | + (+ = 0.5 to 1.5 relative activity over WT GLA (SEQ ID NO: 5))
B3 | ++ (++ = >1.5 to 2.5 relative activity over WT GLA (SEQ ID NO: 5)) | ++ (++ = >1.5 to 2.5 relative activity over WT GLA (SEQ ID NO: 5)) | +++ (+++ = >2.5 relative activity over WT GLA (SEQ ID NO: 5))
B4 | ++ (++ = >1.5 to 2.5 relative activity over WT GLA (SEQ ID NO: 5)) | + (+ = 0.5 to 1.5 relative activity over WT GLA (SEQ ID NO: 5)) | ++ (++ = >1.5 to 2.5 relative activity over WT GLA (SEQ ID NO: 5))
B5 | + (+ = 0.5 to 1.5 relative activity over WT GLA (SEQ ID NO: 5)) | + (+ = 0.5 to 1.5 relative activity over WT GLA (SEQ ID NO: 5)) | + (+ = 0.5 to 1.5 relative activity over WT GLA (SEQ ID NO: 5))
B6 | + (+ = 0.5 to 1.5 relative activity over WT GLA (SEQ ID NO: 5)) | + (+ = 0.5 to 1.5 relative activity over WT GLA (SEQ ID NO: 5)) | + (+ = 0.5 to 1.5 relative activity over WT GLA (SEQ ID NO: 5))
B7 | ++ (++ = >1.5 to 2.5 relative activity over WT GLA (SEQ ID NO: 5)) | + (+ = 0.5 to 1.5 relative activity over WT GLA (SEQ ID NO: 5)) | + (+ = 0.5 to 1.5 relative activity over WT GLA (SEQ ID NO: 5))
B8 | + (+ = 0.5 to 1.5 relative activity over WT GLA (SEQ ID NO: 5)) | + (+ = 0.5 to 1.5 relative activity over WT GLA (SEQ ID NO: 5)) | + (+ = 0.5 to 1.5 relative activity over WT GLA (SEQ ID NO: 5))
B9 | + (+ = 0.5 to 1.5 relative activity over WT GLA (SEQ ID NO: 5)) | + (+ = 0.5 to 1.5 relative activity over WT GLA (SEQ ID NO: 5)) | + (+ = 0.5 to 1.5 relative activity over WT GLA (SEQ ID NO: 5))
B10 | + (+ = 0.5 to 1.5 relative activity over WT GLA (SEQ ID NO: 5)) | ++ (++ = >1.5 to 2.5 relative activity over WT GLA (SEQ ID NO: 5)) | + (+ = 0.5 to 1.5 relative activity over WT GLA (SEQ ID NO: 5))
B11 | + (+ = 0.5 to 1.5 relative activity over WT GLA (SEQ ID NO: 5)) | + (+ = 0.5 to 1.5 relative activity over WT GLA (SEQ ID NO: 5)) | + (+ = 0.5 to 1.5 relative activity over WT GLA (SEQ ID NO: 5))
B12 | ++ (++ = >1.5 to 2.5 relative activity over WT GLA (SEQ ID NO: 5)) | + (+ = 0.5 to 1.5 relative activity over WT GLA (SEQ ID NO: 5)) | + (+ = 0.5 to 1.5 relative activity over WT GLA (SEQ ID NO: 5))
B13 | + (+ = 0.5 to 1.5 relative activity over WT GLA (SEQ ID NO: 5)) | + (+ = 0.5 to 1.5 relative activity over WT GLA (SEQ ID NO: 5)) | + (+ = 0.5 to 1.5 relative activity over WT GLA (SEQ ID NO: 5))
B14 | ++ (++ = >1.5 to 2.5 relative activity over WT GLA (SEQ ID NO: 5)) | ++ (++ = >1.5 to 2.5 relative activity over WT GLA (SEQ ID NO: 5)) | +++ (+++ = >2.5 relative activity over WT GLA (SEQ ID NO: 5))
B15 | + (+ = 0.5 to 1.5 relative activity over WT GLA (SEQ ID NO: 5)) | ++ (++ = >1.5 to 2.5 relative activity over WT GLA (SEQ ID NO: 5)) | + (+ = 0.5 to 1.5 relative activity over WT GLA (SEQ ID NO: 5))
B16 | ++ (++ = >1.5 to 2.5 relative activity over WT GLA (SEQ ID NO: 5)) | ++ (++ = >1.5 to 2.5 relative activity over WT GLA (SEQ ID NO: 5)) | ++ (++ = >1.5 to 2.5 relative activity over WT GLA (SEQ ID NO: 5))
